# Data published in US20210253725A1 (BIONTECH, published 2021).
# Residue numbers refer to the chain shown, from its start. In names and notes the source's numbering stands.
# T1: CD27 expressed on the cell surface (HT1080_CD27 cells) (human, UniProt P26842 20-260)
# T1 construct: whole, on cells; also called K562_CD27
# T1 sequence (looked up): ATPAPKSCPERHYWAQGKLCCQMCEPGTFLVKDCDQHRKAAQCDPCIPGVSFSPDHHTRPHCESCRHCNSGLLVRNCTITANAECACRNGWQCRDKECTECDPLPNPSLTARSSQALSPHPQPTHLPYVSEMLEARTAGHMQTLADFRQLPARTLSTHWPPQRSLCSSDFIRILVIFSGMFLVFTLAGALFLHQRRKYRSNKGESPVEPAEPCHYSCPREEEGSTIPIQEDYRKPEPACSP
# T2: CD27 protein (His-tagged, Sino Biological Inc. 10039-H08B1) (human, UniProt P26842 20-192)
# T2 construct: bought; coated onto ELISA plates; also called human CD27; recombinant protein; not shown: His tag
# T2 sequence (looked up): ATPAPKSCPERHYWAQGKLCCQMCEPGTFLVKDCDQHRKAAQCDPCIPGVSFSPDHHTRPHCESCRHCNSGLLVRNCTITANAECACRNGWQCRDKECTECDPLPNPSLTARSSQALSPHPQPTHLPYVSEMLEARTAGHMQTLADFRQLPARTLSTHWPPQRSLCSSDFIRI
# B1: P018.S.04.A.A01 (antibody, V domains shown)
# VH: QEQLVESGGGLVQPEGSLTLTCTESGFSFSSNAVCWVRQAPGKGLEWIACIYVDSIGSTWYASWAKGRFTISKTSSTTVTLQMTSLTAADTATYFCARGDNIAYFMLWGPGTLVTVSS
# VL: DIVMTQTPASVEAAVGGTVTIRCQASESITSFLSWYQQKPGQPPKLLIYKISTLASGVPSRFKASGSGTEFTLTISDLESADAAAYYCQGYYYYSNVVYASNGFGGGTEVVVK
# notes: V regions on human Ig constant parts; also called AB27_64
# B2: P018.S.01.A.F05 (antibody, V domains shown)
# VH: QEQLEESGGDLVKPEGSLTLTCTASGFSFSSSYWICWVRQAPGKGLEWIGCIITGRGNTYYANWAKGRFTISKTSSTTVTLQMTSLTAADTAIYSCARGPGGADPVNLWGPGTLVTVSS
# VL: DVVMTQTPASVSEPVGGTVTIKCQASQSIYSNLAWYQQKPGQPPKLLIYRASTLTSGVPSRFKGSGSGTQFTLTISDLESADAATYYCQCTYDGSSYVPNAFGGGTEVVVK
# notes: V regions on human Ig constant parts; also called AB27_20
# B3: P018.S.07.A.G02 (antibody, V domains shown)
# VH: QSVEESGGRLVTPGTPLTLTCTVSGFSLSSYDMSWVRQAPGKGLEWIGWITTDGGTDYASWAKGRFTVSKASTTVDLKITSPTTEDTATYFCARGYASFNLWGQGTLVTVSS
# VL: AQVLTQTPSSVSAAVGGTVTINCQSSQSVLSNSYLAWYQQKPGQPPKLLIYAASSLASGVPSRFKGSGSGTQFTLTISDLESDDAATYYCQGTDYSGGWYVAFGGGTEVVVK
# notes: V regions on human Ig constant parts; also called AB27_129
# B4: P018.S.03.A.C05 (antibody, V domains shown)
# VH: QSLEESGGGLVQPGGTLTLTCKASGIDFSSSFYMCWVRQAPGKGLERIACTYNRDGSTYYASWAKGRFTISKTSSTTVTLQMASLTVADTATYFCARDDGYPGSGYVFNLWGPGTLVTVSS
# VL: DVVMTQTPASVEAAVGGTVTIKCQASQSVSSYLSWYQQKPGQRPKLLIYGASNLESGVPSRFKGSGSGTEFTLTISGVQSDDAATYYCQGGYYSSGADNNSFGGGTELVVK
# notes: V regions on human Ig constant parts; also called AB27_46
# B5: P018.S.07.A.D04 (antibody, V domains shown)
# VH: QSLEESGGRLVTPGGSLTLTCTVSGIDLSSYAMGWVRQAPGKGLEWIGIISSSGSTYYASWANGRFTISKTSTTVDLKVTSPTTEDTATYFCARDGDSGRGYYFHFWGQGTLVTVSS
# VL: AFELTQTPASVSAAVGGTVTIKCQASEDIYSLLAWYQQKPGQPPKLLIYDASDLASGVPSRFSGSGSGTEYTLTISDLESADAAIYYCQQGYTTVTIVDNVFGGGTEVVVK
# notes: V regions on human Ig constant parts; also called AB27_123
# B6: P018.S.04.A.D05 (antibody, V domains shown)
# VH: QSLEESGGRLVTPGTPLTLTCTASGIDLSRHAINWVRQAPGKGLEYIGTIYASGSTFYASGAKGRFTISKTSTTVDLGITSLTTEDTATYFCARGITIEWFDLWGQGTLVTVSS
# VL: AAVLTQTPSSVSAAVGGTVTINCQSSPSVYSNYLSWFQQKPGQPPKLLIYGAATLASGVPSRFRGSGSGTEFTLTITDVQSDDAATYYCLGGYSDTADTIFGGGTEVVVK
# notes: V regions on human Ig constant parts; also called AB27_73
# B7: P018.S.01.A.H06 (antibody, V domains shown)
# VH: QEQLKESGGRLVKPDETLTITCTASGFSLSRYDMSWVRQAPGKGLEWIGSIWSDGDTDYANWAKGRFTISKTSTTVDLKITSPTTEDTATYFCARGYTAWSLWGPGTLVTVSS
# VL: ALVMTQTPSPVSAAVGGTVTISCQSSESVVGNNALSWFQQKPGQPPKLLNYQASTLASGVSSRFSGSGSGTQFTLTISGVQSDDAATYYCQGTYYSSGWYFAFGGGTEVVVK
# notes: V regions on human Ig constant parts; also called AB27_26
# B8: P018.S.05.A.G04 (antibody, V domains shown)
# VH: B7 VH with T17S, I20L, T75M, A94G, S101N
# VL: B7 VL with A14T, V19L, N50I
# notes: V regions on human Ig constant parts; also called AB27_93
# B9: P018.S.02.A.E06 (antibody, V domains shown)
# VH: QSLEESGGRLVTPGTPLTLTCTASGFSLSNYSMNWVRQAPGKGLEWIGIINMYGSTYYATWAKGRFTISKTSTTVDLKMTSLTTEDTATYFCARDAGGSTVPWYFDLWGPGTLVTVSS
# VL: AYDMTQTPASVSEPVGGTVTIKCQASESISDYLAWYQQKPGQRPKLLIYDASKLASGVPSRFSGSGSGTEFTLTISGVGSADAATYYCQQGYADSNVDNVFGGGTEVVVK
# notes: V regions on human Ig constant parts; also called AB27_34
# B10: P018.S.08.A.E02 (antibody, V domains shown)
# VH: QSLEESGGRLVTPGGSLTLTCTVSGIDLSSYDMNWVRQAPGEGLEWIGAISTGGDTHYTNWAKGRFTISKTSTTVDLKMTSLTAADTATYFCARGYYTLALWGQGTLVTVSS
# VL: DPVLTQTPASVEAAVGGTVTIKCQASQSINSWLSWYQQKPGQPPKRLIYDTSTLESGVPSRFSGGESGTEFTLTISDLESDDAATYYCQSYYYITSSYAITFGGGTEVVVK
# notes: V regions on human Ig constant parts; also called AB27_139
# B11: P018.S.09.A.H03 (antibody, V domains shown)
# VH: QSLEESGGRLVTPDESLTLTCTVSGFSLSSNAMIWVRQAPGKGLEWIGIIDTGGSAYYASWAKGRFTISKTSTTVDLKITSPTTEDTATYFCARDRYTDSSGYNLWGQGTLVTVSS
# VL: DIVMTQTPASVEAAVGGTVTIKCQASQSIGASLAWYKQKPGQPPKLLIYSASWLASGVPSRFKGSGSGTEFTLTISDLASADAATYYCQSYYYRSSSGYGYAFGGGTEVVVK
# notes: V regions on human Ig constant parts; also called AB27_160
# B12: P018.S.07.A.F04 (antibody, V domains shown)
# VH: QSLEESGGRLVTPGTPLTLTCTVSGFSLSSHAMSWVRQAPGKGLEYIGIIDTDASASYASWAKGRFTISRTSTTVDLKITSPTTEDTATYFCARDGGYTDYSYYAMDLWGPGTLVTVSS
# VL: DIVMTQTPASVEAAVGGTVTIKCQASETIYVNLAWYQQKPGQPPKLLIYRASTLASGVSSRFKGSGSGTEFTLTISDVKSVDAATYYCHQAYRRSDVGNIFGGGTEVVVK
# notes: V regions on human Ig constant parts; also called AB27_128
# B13: P018.S.09.A.D04 (antibody, V domains shown)
# VH: QSVEESGGRLVTPGTPLTLTCTVSGFSLSSNAISWVRQAPGKGLEWIAIITHSDNTFYASWAKGRFTISKASTTVDLKVTSPTTEDTATYFCARDGYVSSSGTYMGGYFDLWGQGTLVTVSS
# VL: DPVLTQTPSPVSAAVGGTVTINCQASQIIYNDKNLAWYQQKPGQPPKLLIYYASTLASGVSSRFKGSASGTQFTFTISGVQSDDAATYYCQGEFSCSSADCIAFGGGTEVVVK
# notes: V regions on human Ig constant parts; also called AB27_151
# B14: P018.S.07.A.H06 (antibody, V domains shown)
# VH: QSLEESGGDLVQPGASLTLTCKASGIDLSSYWMCWVRQTPGKGLEWIGCIATYSSVTYYANWAKGRFTISKPSSTTVTLQMTSLTAADTATYFCARDPYSFNGSLFTLWGPGTLVTVSS
# VL: ALVMTQTASPVSAAVGGTVTIDCQASQNIGTYLAWYQQKPGQPPKLLIYTASSLASGVPSRFKGSGSGTQFTLTISDLESDDAATYYCAGYKNYNNDDNGFGGGTEVVVK
# notes: V regions on human Ig constant parts; also called AB27_134
# B15: P018.S.05.A.B02 (antibody, V domains shown)
# VH: QSLEESGGRLVTPGTPLTLTCKVSGFSLSSYDMIWVRQAPGKGLEWIGIVSTGGSAGYASWAKGRFTITKTSTTVDLKITSPTTEDTATYFCARIISGGRDLWGPGTLVTVSS
# VL: DIVMTQTPASVEAAVGGTVTIKCQASESISSRLAWYQQKPGQPPKLLIYSASTLAFGVSSRFKGSGSGTQFTLTISDLESADAATYYCQSYYYSSTASYASNNAFGGGTEVVVK
# notes: V regions on human Ig constant parts; also called AB27_83
# B16: P018.S.07.A.D03 (antibody, V domains shown)
# VH: QEQLKESGGGLVTPGGTLTLTCTVSGFSLSGHDMGWVRQAPGKGLEWIGIIGSNSKTYYTNWAKGRFTISKTSTTVGLRITSPTTEDTATYFCTVVGPGVGGFYFDLWGQGTLVTVSS
# VL: DVVMTQTPASVSDPVGGTVTIRCQASQSIGSDLAWYQQKPGQPPKLLIYAASTLASGVPSRFSGSGSGTEYTLTISDLESADAATYYCQCTYVGSTYLGAFGGGTEVVVK
# notes: V regions on human Ig constant parts; also called AB27_122
# Biological target: T1, CD27 expressed on the cell surface …
# Experiment: cellular binding assay, HT1080_CD27 cells
# Note: test concentration or dose not given here.
row,Cellular binding assay [RFU],Binder
1,297,B1
2,369,B2
3,453,B3
4,303,B4
5,393,B5
6,292,B6
7,422,B7
8,375,B8
9,331,B9
10,387,B10
11,268,B11
12,296,B12
13,376,B13
14,327,B14
15,259,B15
16,409,B16

# Biological target: T2, CD27 protein (His-tagged, Sino …)
# Experiment: ELISA on coated His-tagged CD27
row,ELISA [abs. corr.],Binder
1,3.32,B1
2,3.35,B2
3,3.33,B3
4,3.32,B4
5,3.33,B5
6,3.33,B6
7,3.44,B7
8,3.35,B8
9,3.32,B9
10,3.33,B10
11,3.54,B11
12,3.35,B12
13,3.35,B13
14,3.35,B14
15,3.32,B15
16,3.34,B16

# Biological target: T1, CD27 expressed on the cell surface …
# Experiment: cell-based or functional assay
"IL-8, cross-linked by F(ab')2 fragment [abs. corr.]",IL-8 [abs. corr.],Binder
1.47,0.176,B1
1.18,0.559,B2
2.41,0.725,B3
1.63,0.544,B4
1.81,0.449,B5
1.08,0.241,B6
2.18,0.27,B7
1.19,0.393,B8
1.29,0.308,B9
1.55,0.315,B10
2.13,0.578,B11
1.58,0.424,B12
1.66,0.688,B13
1.23,0.422,B14
1.95,0.633,B15
1.68,0.569,B16
